Publication PMC12632274, “The PA2803-encoded PcrP exhibits a novel non-catalytic function and contributes to polymyxin B resistance in P. aeruginosa” (Journal of Bacteriology, 2025)

Molecular target: the molecule itself
Assay: cross-linking; 50 µM purified PcrP with 0.02, 0.05, 0.1 and 0.2% glutaraldehyde, 2 min, 20 mM HEPES pH 7.8, 50 mM NaCl, 1% glycerol; stopped with Tris-HCl; 12% SDS-PAGE, Coomassie

B1: 6xHis-PcrP (PA2803), recombinant, purified from E. coli (natural protein)
chain: MPSSDQLPRFTALLFGLSGGLVDFGARTLSLALLRSHPHSPAEHLRDASLLPFAEAQSFLLRRKPNKSERQRLEQALDEAAGEQAEAIAGAVALLESLDEQRIPYAWQDELPESVCQRLAAPLGRANALIPLAGARPWPAPDGCWQALARLGIERLDGCVLVSAQPRQLQAGLNAGLWTIGLAASGPSCGLSPADWDALGHTERDRLRADATLELYRLGVHSVIDHLGELQPCLHDLAVRRLKGEKP
notes: PcrP (PA2803), Pseudomonas aeruginosa PAO1; cloned NdeI/EcoRI into pSKB3; No removal of the His tag is described; also called 6XHis-PA2803; pAAK001 construct; source: E. coli BL21(DE3), purified (Ni-NTA)
stoichiometry N: 2
